Measured values reported in patent US20140349405, “RNA-DIRECTED DNA CLEAVAGE AND GENE EDITING BY CAS9 ENZYME FROM NEISSERIA MENINGITIDIS” (WISCONSIN ALUMNI RESEARCH FOUNDATION, published 2014).

B1: Neisseria CRISPR repeat promoter wt (dsDNA)
DNA 1: GTTGTAGCTCCCTTTCTCATTTCGCAGTGCTACAAT
DNA 2: ATTGTAGCACTGCGAAATGAGAAAGGGAGCTACAAC
B2: Neisseria CRISPR repeat promoter mut (dsDNA)
DNA 1: GTTGTAGCTCCCTTTCTCATTTCGCAGTGCCCCAAT
DNA 2: ATTGGGGCACTGCGAAATGAGAAAGGGAGCTACAAC
modifications: [31-32]

How the values were obtained:
[1] = molecular target: T1, RNA polymerase sigma70 holoenzyme (Escherichia coli, UniProt P0A7Z4;P0A8V2;P0A8T7;P0A800;P00579 …); assay: in vitro transcription, 168 nt product; 10 mM Mg, 100 mM KCl, 37 C; conditions: tags: Epicentre, sigma-saturated; chain copies: 2,1,1,1,1
[2] = molecular target: T1, RNA polymerase sigma70 holoenzyme; assay: in vitro transcription, no transcript; conditions: tags: Epicentre, sigma-saturated; chain copies: 2,1,1,1,1

T1 sequence (P0A7Z4 whole entry, chain 1 of 4): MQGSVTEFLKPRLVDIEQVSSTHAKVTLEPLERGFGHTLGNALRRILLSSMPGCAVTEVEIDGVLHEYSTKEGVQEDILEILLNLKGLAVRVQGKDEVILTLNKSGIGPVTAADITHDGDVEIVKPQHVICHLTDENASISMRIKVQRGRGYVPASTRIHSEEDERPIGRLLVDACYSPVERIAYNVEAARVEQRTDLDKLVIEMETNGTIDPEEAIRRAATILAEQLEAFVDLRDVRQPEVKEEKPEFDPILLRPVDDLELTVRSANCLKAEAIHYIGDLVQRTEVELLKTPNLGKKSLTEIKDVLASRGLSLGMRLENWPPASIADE
T1 sequence (P0A8V2 whole entry, chain 2 of 4): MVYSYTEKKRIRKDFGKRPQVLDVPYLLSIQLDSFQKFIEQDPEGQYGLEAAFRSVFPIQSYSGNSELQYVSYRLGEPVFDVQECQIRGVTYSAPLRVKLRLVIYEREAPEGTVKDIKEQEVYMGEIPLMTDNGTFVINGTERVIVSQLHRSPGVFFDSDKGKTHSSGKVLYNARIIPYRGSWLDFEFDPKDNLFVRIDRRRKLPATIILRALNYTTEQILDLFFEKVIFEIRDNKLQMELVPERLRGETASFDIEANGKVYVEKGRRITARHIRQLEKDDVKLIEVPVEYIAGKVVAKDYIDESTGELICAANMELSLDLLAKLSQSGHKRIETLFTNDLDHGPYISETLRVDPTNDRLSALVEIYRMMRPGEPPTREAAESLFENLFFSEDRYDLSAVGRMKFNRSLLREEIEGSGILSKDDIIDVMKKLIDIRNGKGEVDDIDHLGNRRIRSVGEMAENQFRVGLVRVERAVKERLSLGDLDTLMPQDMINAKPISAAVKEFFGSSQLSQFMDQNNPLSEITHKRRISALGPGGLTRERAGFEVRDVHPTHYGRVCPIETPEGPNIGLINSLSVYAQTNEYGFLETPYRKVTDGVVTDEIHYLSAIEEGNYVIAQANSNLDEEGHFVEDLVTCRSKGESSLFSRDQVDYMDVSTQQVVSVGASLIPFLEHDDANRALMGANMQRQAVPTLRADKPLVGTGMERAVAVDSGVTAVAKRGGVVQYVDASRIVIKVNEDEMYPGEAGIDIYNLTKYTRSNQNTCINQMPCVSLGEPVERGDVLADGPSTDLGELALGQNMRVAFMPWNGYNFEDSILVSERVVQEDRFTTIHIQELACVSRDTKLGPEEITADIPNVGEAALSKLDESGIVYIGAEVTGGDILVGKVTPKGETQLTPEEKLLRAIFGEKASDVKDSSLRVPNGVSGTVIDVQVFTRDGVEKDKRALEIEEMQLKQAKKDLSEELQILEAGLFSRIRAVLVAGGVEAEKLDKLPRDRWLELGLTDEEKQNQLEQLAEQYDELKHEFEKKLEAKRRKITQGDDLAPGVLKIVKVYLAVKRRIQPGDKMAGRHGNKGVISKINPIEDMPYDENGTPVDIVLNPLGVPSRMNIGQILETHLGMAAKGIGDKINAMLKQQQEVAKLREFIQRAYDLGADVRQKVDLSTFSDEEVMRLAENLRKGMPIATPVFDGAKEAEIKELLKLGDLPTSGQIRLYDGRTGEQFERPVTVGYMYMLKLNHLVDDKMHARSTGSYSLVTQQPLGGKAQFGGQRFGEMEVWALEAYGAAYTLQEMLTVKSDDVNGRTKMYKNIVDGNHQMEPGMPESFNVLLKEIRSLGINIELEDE
T1 sequence (P0A800 2-91, chain 4 of 4): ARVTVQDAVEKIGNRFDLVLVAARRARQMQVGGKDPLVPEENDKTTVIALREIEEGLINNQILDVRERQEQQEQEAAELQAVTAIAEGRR
T1 sequence (P00579 whole entry, chain 5 of 4): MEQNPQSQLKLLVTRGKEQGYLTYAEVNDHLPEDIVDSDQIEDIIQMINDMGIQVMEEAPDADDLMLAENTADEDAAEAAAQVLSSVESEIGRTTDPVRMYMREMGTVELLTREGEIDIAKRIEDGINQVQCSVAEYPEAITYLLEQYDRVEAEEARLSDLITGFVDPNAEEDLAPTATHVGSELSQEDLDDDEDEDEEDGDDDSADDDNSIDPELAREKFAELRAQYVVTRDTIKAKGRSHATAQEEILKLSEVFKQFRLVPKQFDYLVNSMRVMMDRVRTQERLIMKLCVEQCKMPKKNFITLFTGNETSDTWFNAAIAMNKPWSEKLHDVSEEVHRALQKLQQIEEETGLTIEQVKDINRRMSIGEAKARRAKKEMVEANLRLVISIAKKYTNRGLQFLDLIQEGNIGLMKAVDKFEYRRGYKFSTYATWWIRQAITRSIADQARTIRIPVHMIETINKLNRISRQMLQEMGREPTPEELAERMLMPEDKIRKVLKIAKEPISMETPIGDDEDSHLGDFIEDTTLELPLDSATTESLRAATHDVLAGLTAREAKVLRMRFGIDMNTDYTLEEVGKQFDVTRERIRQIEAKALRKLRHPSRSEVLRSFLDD

Binder	binding result [1]	binding result [2]
B1	binds	–
B2	–	no binding
